According to PMC6600642:

Key:
[1] = target: microtubules (polymerized from unlabeled tubulin, Taxol-stabilised)
[2] = target: microtubules (polymerized from unlabeled tubulin, Taxol-stabilised); remark: listed apart in the source

microtubules (polymerized from unlabeled tubulin, Taxol-stabilised), sequence (chain, as listed by the source, chain 1 of 2): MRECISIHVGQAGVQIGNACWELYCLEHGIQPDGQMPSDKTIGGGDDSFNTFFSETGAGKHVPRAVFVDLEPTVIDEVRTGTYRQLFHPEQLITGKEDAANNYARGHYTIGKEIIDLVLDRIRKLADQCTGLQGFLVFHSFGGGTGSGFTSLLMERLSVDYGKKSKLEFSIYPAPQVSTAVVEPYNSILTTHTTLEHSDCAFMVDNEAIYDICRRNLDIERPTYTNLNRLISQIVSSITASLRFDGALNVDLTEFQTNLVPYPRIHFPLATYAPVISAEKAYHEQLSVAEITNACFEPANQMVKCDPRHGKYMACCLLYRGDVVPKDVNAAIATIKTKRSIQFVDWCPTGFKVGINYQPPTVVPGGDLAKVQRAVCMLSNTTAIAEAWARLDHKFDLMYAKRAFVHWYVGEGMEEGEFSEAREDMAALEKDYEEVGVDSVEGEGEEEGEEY
microtubules (polymerized from unlabeled tubulin, Taxol-stabilised), sequence (chain, as listed by the source, chain 2 of 2): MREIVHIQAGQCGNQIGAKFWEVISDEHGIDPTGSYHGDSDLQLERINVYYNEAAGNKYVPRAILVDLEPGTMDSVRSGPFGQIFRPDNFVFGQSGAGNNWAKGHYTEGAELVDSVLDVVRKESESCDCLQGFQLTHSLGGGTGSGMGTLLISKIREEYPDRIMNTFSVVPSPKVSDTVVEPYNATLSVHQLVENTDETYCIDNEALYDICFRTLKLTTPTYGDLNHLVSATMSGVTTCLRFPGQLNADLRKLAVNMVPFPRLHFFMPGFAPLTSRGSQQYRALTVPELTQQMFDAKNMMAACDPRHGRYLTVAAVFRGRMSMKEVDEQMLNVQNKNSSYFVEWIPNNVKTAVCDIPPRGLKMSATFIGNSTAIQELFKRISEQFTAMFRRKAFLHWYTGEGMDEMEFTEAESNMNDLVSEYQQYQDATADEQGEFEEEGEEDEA

Saccharomyces cerevisiae cytoplasmic dynein (Dyn1) 1219-4093, monomeric construct, wild-type, P36022 1219-4092
microtubule-stimulated ATPase activity of monomeric dynein, 0–5 μM microtubules: K M for tubulin dimer [1]: 0.5 µM
microtubule-stimulated ATPase activity of monomeric dynein (second series, beside mutant 14): [MT] K M [2]: 0.42 µM
